The series addresses T1, MhAgo_DM (Marinitoga hydrogenitolerans, UniProt A0A1M5A5Z8 1-640, D445A;D515A).
T1 sequence: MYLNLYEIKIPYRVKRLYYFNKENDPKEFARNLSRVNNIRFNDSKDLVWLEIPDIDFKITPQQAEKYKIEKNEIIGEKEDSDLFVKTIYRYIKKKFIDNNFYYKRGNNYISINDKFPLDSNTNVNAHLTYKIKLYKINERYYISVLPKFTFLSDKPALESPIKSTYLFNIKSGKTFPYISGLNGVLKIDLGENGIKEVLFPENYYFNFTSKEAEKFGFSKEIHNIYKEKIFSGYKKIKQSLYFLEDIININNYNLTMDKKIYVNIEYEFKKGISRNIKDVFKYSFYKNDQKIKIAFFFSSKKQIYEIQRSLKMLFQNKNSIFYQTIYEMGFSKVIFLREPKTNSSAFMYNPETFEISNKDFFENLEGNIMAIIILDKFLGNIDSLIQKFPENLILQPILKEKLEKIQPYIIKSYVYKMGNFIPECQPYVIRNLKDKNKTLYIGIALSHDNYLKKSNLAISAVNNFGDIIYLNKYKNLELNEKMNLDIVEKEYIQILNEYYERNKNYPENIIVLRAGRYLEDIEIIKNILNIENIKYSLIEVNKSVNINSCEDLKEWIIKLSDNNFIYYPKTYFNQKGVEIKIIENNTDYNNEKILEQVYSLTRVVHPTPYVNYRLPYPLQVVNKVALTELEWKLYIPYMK
Nature of the series: EMSA. A general note: A gel shift assay detects complexes by their altered migration in electrophoresis.

Kd data for eight molecules are collected here from publication doi:10.1101/2021.10.11.464003.

B1: 5'OH-gDNA:tDNA duplex (dsDNA)
DNA 1: CGAGGTAGTAGGTTGTAT
DNA 2: AAACGACGGCCAGTGCCAAGCTTACTATACAACCTACTACCTCGT
modifications: guide 5'OH
What is called Kd is the free concentration of one partner at which half of the binding sites on the other are occupied at equilibrium, for simple one-to-one binding. A higher Kd goes with a looser complex. The molecule B1 came in with a Kd of 119 ± 4.8 nM.

B2: 5'P-gDNA:tDNA duplex (dsDNA)
DNA 1: CGAGGTAGTAGGTTGTAT
DNA 2: AAACGACGGCCAGTGCCAAGCTTACTATACAACCTACTACCTCGT
modifications: guide 5' phosphate
For B2, binding was characterised by a dissociation constant (Kd) of 145 ± 11.5 nM.

B3: 5'P-gRNA:tDNA duplex (DNA:RNA)
RNA: CGAGGUAGUAGGUUGUAU
DNA: AAACGACGGCCAGTGCCAAGCTTACTATACAACCTACTACCTCGT
modifications: guide 5' phosphate
The molecule B3 registered a Kd of 148 ± 4.52 nM.

B4: 5'OH-gRNA:tDNA duplex (DNA:RNA)
RNA: CGAGGUAGUAGGUUGUAU
DNA: AAACGACGGCCAGTGCCAAGCTTACTATACAACCTACTACCTCGT
modifications: guide 5'OH
Take B4: binding was characterised by a dissociation constant (Kd) of 121 ± 4.66 nM. The Kd values of the last two molecules are within 1.5-fold of each other.

B5: 5'OH-gRNA:tRNA duplex (dsRNA)
RNA 1: CGAGGUAGUAGGUUGUAU
RNA 2: AAACGACGGCCAGUGCCAAGCUUACUAUACAACCUACUACCUCGU
modifications: guide 5'OH
Molecule B5 displayed a Kd of 125 ± 6.83 nM.

B6: 5'P-gRNA:tRNA duplex (dsRNA)
RNA 1: CGAGGUAGUAGGUUGUAU
RNA 2: AAACGACGGCCAGUGCCAAGCUUACUAUACAACCUACUACCUCGU
modifications: guide 5' phosphate
As for B6, the affinity, expressed as Kd, was 232 ± 5.07 nM. This Kd is about 1.9-fold higher than that of the molecule before.

B7: 5'OH-gDNA:tRNA duplex (DNA:RNA)
DNA: CGAGGTAGTAGGTTGTAT
RNA: AAACGACGGCCAGUGCCAAGCUUACUAUACAACCUACUACCUCGU
modifications: guide 5'OH
For B7, the Kd was determined as 102 ± 1.69 nM. Against the preceding molecule, the Kd is about 2.3-fold lower.

B8: 5'P-gDNA:tRNA duplex (DNA:RNA)
DNA: CGAGGTAGTAGGTTGTAT
RNA: AAACGACGGCCAGUGCCAAGCUUACUAUACAACCUACUACCUCGU
modifications: guide 5' phosphate
For the molecule B8, the Kd worked out at 140 ± 5.37 nM. This Kd and that of the molecule before are within 1.5-fold of each other.
